Entries after “also recorded” stand apart in the source; their conditions may differ.
Columns and labels:
immobilized Fg = target: T1, immobilized Fg (Homo sapiens, UniProt P02675); assay: ELISA: rSdrG(50-597) binding to immobilized Fg
T1 construct: purchased Enzyme Research Labs
T1 sequence (P02675 31-491): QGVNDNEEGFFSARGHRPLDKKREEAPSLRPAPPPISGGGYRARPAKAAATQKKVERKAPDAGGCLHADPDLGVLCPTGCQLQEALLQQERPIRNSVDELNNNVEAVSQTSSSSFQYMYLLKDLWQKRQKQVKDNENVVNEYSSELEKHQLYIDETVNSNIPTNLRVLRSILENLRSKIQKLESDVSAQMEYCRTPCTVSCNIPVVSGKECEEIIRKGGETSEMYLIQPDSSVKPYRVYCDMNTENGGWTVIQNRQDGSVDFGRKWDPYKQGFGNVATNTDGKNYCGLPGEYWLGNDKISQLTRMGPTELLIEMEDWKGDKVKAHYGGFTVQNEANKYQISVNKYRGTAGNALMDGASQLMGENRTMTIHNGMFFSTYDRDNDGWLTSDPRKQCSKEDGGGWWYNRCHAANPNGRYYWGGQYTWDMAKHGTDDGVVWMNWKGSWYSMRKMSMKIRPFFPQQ
T1 sequence (P02671 20-629 partner limits assumed): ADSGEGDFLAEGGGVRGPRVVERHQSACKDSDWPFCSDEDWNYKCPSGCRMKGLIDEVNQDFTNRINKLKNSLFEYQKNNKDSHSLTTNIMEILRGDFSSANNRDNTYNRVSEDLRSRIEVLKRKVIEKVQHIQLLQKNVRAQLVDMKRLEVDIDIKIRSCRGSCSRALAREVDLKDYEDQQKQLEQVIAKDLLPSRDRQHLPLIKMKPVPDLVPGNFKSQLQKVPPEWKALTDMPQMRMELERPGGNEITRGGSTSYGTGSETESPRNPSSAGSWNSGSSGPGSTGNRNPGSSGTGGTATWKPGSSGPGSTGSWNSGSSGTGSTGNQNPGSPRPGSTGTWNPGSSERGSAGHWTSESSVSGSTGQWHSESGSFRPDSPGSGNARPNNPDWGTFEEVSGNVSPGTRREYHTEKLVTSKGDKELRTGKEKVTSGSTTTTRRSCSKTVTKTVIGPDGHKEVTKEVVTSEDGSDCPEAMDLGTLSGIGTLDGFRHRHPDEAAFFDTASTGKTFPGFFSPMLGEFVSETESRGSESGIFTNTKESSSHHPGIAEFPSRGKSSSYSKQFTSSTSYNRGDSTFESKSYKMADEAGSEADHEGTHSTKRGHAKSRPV
T1 sequence (P02679 27-433 partner limits assumed): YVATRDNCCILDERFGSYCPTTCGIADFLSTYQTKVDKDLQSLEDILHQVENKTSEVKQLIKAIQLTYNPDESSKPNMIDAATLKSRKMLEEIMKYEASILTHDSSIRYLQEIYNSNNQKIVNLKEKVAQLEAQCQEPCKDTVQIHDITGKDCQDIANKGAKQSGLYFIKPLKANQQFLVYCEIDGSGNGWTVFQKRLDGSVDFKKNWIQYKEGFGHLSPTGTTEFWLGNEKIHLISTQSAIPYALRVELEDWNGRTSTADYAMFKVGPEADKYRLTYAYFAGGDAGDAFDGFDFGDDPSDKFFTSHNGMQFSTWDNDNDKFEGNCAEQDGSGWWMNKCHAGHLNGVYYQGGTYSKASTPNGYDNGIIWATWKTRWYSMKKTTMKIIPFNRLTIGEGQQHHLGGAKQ
Procedure: ELISA—Microtiter plates (Immulon 4, Dynatech Laboratories Inc.) were coated with 1 μg of Fg (Enzyme Research Labs) in PBS, pH 7.5 for 18 h at 4° C. Plates were washed three times with PBS, 0.05% Tween 20 (PBST) and blocked with 1% (w/v) bovine serum albumin (BSA) for 1 h at room temperature. Plates were washed three times with PBST and rSdrG(50-597), diluted into PBS, was added to the wells and the plate was incubated for 1 h at room temperature. Plates were washed three times with PBST and bound rSdrG(50-597) was detected by adding a 1:2000 dilution of an anti-His-tag mAb (Clontech) in PBST, 0.1% BSA. Plates were incubated for 1 h at room temperature and then washed three times with PBST. A 1:2000 dilution of goat anti-mouse alkaline phosphatase (AP)-conjugated polyclonal antibodies (Bio-Rad) in PBST, 0.1% BSA were added to the wells and the plate was incubated for 1 h at room temperature. Plates were washed three times with PBST and developed with p-nitrophenyl phosphate (Sigma) in 1 M diethanolamine, 0.5 mM MgCl2, pH 9.0 at room temperature for ˜30 min. Plates were read at 405 nm using an ELISA plate reader (Thermomax microplate reader, Molecular Devices).

[1] = system: thrombin catalyzed release of fibrinopeptides A and B; assay: Release of fibrinopeptides by thrombin, HPLC; type: biochemical; conditions: for Percentage of FpB released: Fg 0.3 μM
Procedure: Release of Fibrinopeptides by Thrombin—The thrombin catalyzed release of fibrinopeptides A and B was analyzed as follows. Fg solutions were diluted to 0.3 μM in 20 mM HEPES (pH 7.4), 150 mM NaCl, 5 mM ε-aminocapriotic acid, and 1.0 mM CaCl2. ε-aminocapriotic acid was included to inhibit any possible plasmin contaminant activity. […] The tubes were mixed by inversion and 500 μl aliquots were removed for the 15 and 60 min time points. The aliquots were incubated at room temperature and then immersed in boiling water for 15 min to halt the reaction. The aliquots were stored on ice for the remainder of the time course. At the end of the reaction the samples were centrifuged for 15 min at 4° C., and the supernatants were removed and stored at −20° C. overnight prior to analysis by high performance liquid chromatography.
The fibrinopeptides released were monitored by reverse phase HPLC essentially as described (19). The samples were loaded onto a Waters Delta-Pak C18 column equilibrated with buffer A (25 mM NaH2PO4/Na2HPO4, pH 6.0). Fibrinopeptides were eluted with a linear gradient from 100% buffer A to 40% buffer B (Buffer A with 50% acetonitrile) and monitored by absorbance at 205 nm. Fibrinopeptide peak area was determined using the software Waters Millennium^32.

B1: rSdrG(50-597): recombinant His-tagged A region (residues 50-597) of SdrG, a fibrinogen-binding MSCRAMM from S. epidermidis (protein)
chain: HHHHHHAEENTVQDVKDSNMDDELSDSNDQSSNEEKNDVINNSQSINTDDDNQIKKEETNSNDAIENRSKDITQSTTNVDENEATFLQKTPQDNTQLKEEVVKEPSSVESSNSSMDTAQQPSHTTINSEASIQTSDNEENSRVSDFANSKIIESNTESNKEENTIEQPNKVREDSITSQPSSYKNIDEKISNQDELLNLPINEYENKVRPLSTTSAQPSSKRVTVNQLAAEQGSNVNHLIKVTDQSITEGYDDSDGIIKAHDAENLIYDVTFEVDDKVKSGDTMTVNIDKNTVPSDLTDSFAIPKIKDNSGEIIATGTYDNTNKQITYTFTDYVDKYENIKAHLKLTSYIDKSKVPNNNTKLDVEYKTALSSVNKTITVEYQKPNENRTANLQSMFTNIDTKNHTVEQTIYINPLRYSAKETNVNISGNGDEGSTIIDDSTIIKVYKVGDNQNLPDSNRIYDYSEYEDVTNDDYAQLGNNNDVNINFGNIDSPYIIKVISKYDPNKDDYTTIQQTVTMQTTINEYTGEFRTASYDNTIAFSTSSGQGQGDLPPE
binding to immobilized Fg (immobilized Fg): bound immobilized Fg
FpA release by thrombin [1]: no apparent interference
FpB release by thrombin ([1]; 1:1 ratio of rSdrG(50-597) to Fg): significant decrease
FpB release by thrombin ([1]; 5:1 ratio (1.5 μM rSdrG(50-597))): decrease in the amount of FpB released; also recorded: effectively able to inhibit the release of FpB
Percentage of FpB released ([1]; SdrG:Fg 1:1, 15 min): 65.4%
Percentage of FpB released ([1]; SdrG:Fg 1:1, 60 min): 45.2%
Percentage of FpB released ([1]; SdrG:Fg 2:1, 15 min): 13.9%
Percentage of FpB released ([1]; SdrG:Fg 2:1, 60 min): 17.4%
Percentage of FpB released ([1]; SdrG:Fg 5:1, 15 min): <0.001%
Percentage of FpB released ([1]; SdrG:Fg 5:1, 60 min): <0.001%
